This note sets out measurements from paper PMC10120002 (Proceedings of the National Academy of Sciences of the …, 2023).

In experiment [1] the target is Cdk5 protein alone (recombinant) (UniProt Q00535 1-292). Kind of experiment: MST.
Experiment [2] concerns the target T1, recombinant Cdk5/p25 complex (UniProt Q00535 1-292; Q15078 99-307). Kind of experiment: MST.
Experiment [3] addresses T1, recombinant Cdk5/p25 complex. Kind of experiment: BLI. Background: BLI is a label-free optical method that tracks binding on a fibre tip over time.

Broadly, the Kd is a measure of binding affinity in units of concentration.

With ARAFGIPVRCYS [Cdk5i peptide], the Kd in experiment [1] came out at 15700 nM; in experiment [2], 170 nM; in experiment [3] it was 220 nM.
